What was measured:
recombinant LILRB1 [1] = target: T1, recombinant LILRB1 (Homo sapiens, UniProt Q8NHL6); experiment: BLI
recombinant LILRB1 [2] = target: T1, recombinant LILRB1; experiment: BLI + ELISA
recombinant LILRB1 [3] = target: T1, recombinant LILRB1; experiment: ELISA

T1 sequence (Q8NHL6 24-461): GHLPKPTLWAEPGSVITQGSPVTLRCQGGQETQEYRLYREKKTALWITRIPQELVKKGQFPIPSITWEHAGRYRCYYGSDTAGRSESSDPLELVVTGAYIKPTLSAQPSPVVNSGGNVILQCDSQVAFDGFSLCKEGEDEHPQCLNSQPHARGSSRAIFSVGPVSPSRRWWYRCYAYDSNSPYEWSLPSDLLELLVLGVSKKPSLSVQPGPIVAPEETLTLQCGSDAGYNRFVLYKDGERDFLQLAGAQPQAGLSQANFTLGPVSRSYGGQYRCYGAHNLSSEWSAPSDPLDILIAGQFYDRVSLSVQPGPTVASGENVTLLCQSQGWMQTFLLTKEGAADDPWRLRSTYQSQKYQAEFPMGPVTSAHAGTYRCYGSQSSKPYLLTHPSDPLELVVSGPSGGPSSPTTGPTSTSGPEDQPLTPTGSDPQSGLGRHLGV

Binder | binding result (recombinant LILRB1 [2]) | binding result (recombinant LILRB1 [3]) | other results
rabbit anti-LILRB1 monoclonal antibody B1-176 (antibody, V domains shown) VH: QSLEESEGGLVKPGGTLTLTCTASGFSFSSSYCMCWVRQAPGKGLELIACIYTDSSGATYYASWAKGRFTISKSSSTTITLQMTSLTAADTATYFCARGWDYEDPGYTDTTYFSLWGPGTLVTVSS VL: ELDLTQTPSSVEAAVGGTVTIKCQASQTIYTNLAWYQQKPGQPPNLLIYAASTLASGVSSRFKGSGSGTEFTLTISDLECADAATYYCQSYYGSSTTGNGFGGGTEVEIK | – | – | Kd (recombinant LILRB1 [1]): ~0.01 nM
humanized anti-LILRB1 antibody Hu B1-176-N297A (antibody, V domains shown) VH: EVQLVESGGGLVQPGGSLRLSCAASGFSFSSSYCMCWVRQAPGKGLELVSCIYTDSSGATYYASWAKGRFTISRHNSKNTLYLQMNSLRAEDTAVYYCARGWDYEDPGYTDTTYFSLWGRGTLVTVSS VL: DIQLTQSPSFLSASVGDRVTITCQASQTIYTNLAWYQQKPGKAPKLLIYAASTLASGVPSRFSGSGSGTEFTLTISSLQPEDFATYYCQSYYGSSTTGNGFGGGTKVEIK | binds | – | –
humanized anti-LILRB1 antibody Hu B1-176-LALAPG (antibody, V domains shown) VH: EVQLVESGGGLVQPGGSLRLSCAASGFSFSSSYCMCWVRQAPGKGLELVSCIYTDSSGATYYASWAKGRFTISRHNSKNTLYLQMNSLRAEDTAVYYCARGWDYEDPGYTDTTYFSLWGRGTLVTVSS VL: DIQLTQSPSFLSASVGDRVTITCQASQTIYTNLAWYQQKPGKAPKLLIYAASTLASGVPSRFSGSGSGTEFTLTISSLQPEDFATYYCQSYYGSSTTGNGFGGGTKVEIK | binds | – | –
humanized B1-176 with heavy chain Hu-176 VH-1 and light chain Hu-176 VL (antibody, V domains shown) VH: EVQLVESGGGLVQPGGSLRLSCAASGFSFSSSYCMCWVRQAPGKGLEWVSCIYTDSSGATYYASWAKGRFTISRHNSKNTLYLQMNSLRAEDTAVYYCARGWDYEDPGYTDTTYFSLWGRGTLVTVSS VL: DIQLTQSPSFLSASVGDRVTITCQASQTIYTNLAWYQQKPGKAPKLLIYAASTLASGVPSRFSGSGSGTEFTLTISSLQPEDFATYYCQSYYGSSTTGNGFGGGTKVEIK | – | binds | –
humanized B1-176 with heavy chain Hu-176 VH-2 (W48L), as tested in Figure 3B (antibody, V domains shown) VH: EVQLVESGGGLVQPGGSLRLSCAASGFSFSSSYCMCWVRQAPGKGLELVSCIYTDSSGATYYASWAKGRFTISRHNSKNTLYLQMNSLRAEDTAVYYCARGWDYEDPGYTDTTYFSLWGRGTLVTVSS VL: DIQLTQSPSFLSASVGDRVTITCQASQTIYTNLAWYQQKPGKAPKLLIYAASTLASGVPSRFSGSGSGTEFTLTISSLQPEDFATYYCQSYYGSSTTGNGFGGGTKVEIK | – | binds | –

From article PMC7418854 (Journal for Immunotherapy of Cancer, 2020)
